# Results published in the supplement of paper PMC7877785.
# ± gives the uncertainty stated by the source.
# Experiment: self-splicing fitness, log relative to wild type (ln ratio); higher = more splicing; Tetrahymena group I intron in knt gene, E. coli kanamycin selection, DiMSum; sequences stand for … in CUCUCU…GGAGGGAAAAGUUAUCAGGCAUGCACCUGGUAGCUAGUCUUUAAACCAAUAGAUUGCAUCGGUUUAAAAGGCAAGACCGUCAAAUUGCGGGAAAGGGGUCAACAGCCGUUCAGUACCAAGUCUCAGGGGAAACUUUGAGAUGGCCUUGCAAAGGGUAUGGUAAUAAGCUGACGGACAUGGUCCUAACCACGCAGCCAAGUCCUAAGUCAACAGAUCUUCUGUUGAUAUGGAUGCAGUUCACAGACUAAAUGUCGGUCGGGGAAGAUGUAUUCUUCUCAUAAGAUAUAGUCGGACCUCUCCUUAAUGGGAGCUAGCGGAUGAAGUGAUGCAACACUGGAGCCGCUGGGAACUAAUUUGUAUGCGAAAGUAUAUUGAUUAGUUUUGGAGUACUCGUGGUCG
# Outline: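 Library with all eight P1ex-region intron nucleotides randomised, intron inside the knt kanamycin-resistance gene on pET-22b(+), in E. coli BL21(DE3). Cells grew overnight at 37°C or 30°C on LB agar with or without 25 μg/mL kanamycin (plus 100 μg/mL carbenicillin, 50 μM IPTG, 0.2% rhamnose), in six replicate transformations. Pooled colonies were amplicon-sequenced on Illumina HiSeq 2500. DiMSum fitness is the error-weighted combination of wild-type-normalised replicate fold changes, kanamycin versus none.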
Sequence,self-splicing fitness (ln) (30 °C),self-splicing fitness (ln) (37 °C)
GAGCAGCAAUAUUACGCCGU,-1.39 ± 0.12,-0.525 ± 0.19
CCAUAGCAAUAUUACGUAUG,-3.88 ± 0.15,-2.19 ± 0.13
GUGGAGCAAUAUUACGUAUU,-3.11 ± 0.17,-1.68 ± 0.21
UGUCAGCAAUAUUACGGCUG,-2.9 ± 0.18,-0.843 ± 0.18
CUUGAGCAAUAUUACGCCCG,-2.41 ± 0.46,–
UUACAGCAAUAUUACGUGCA,-1.27 ± 0.055,-0.148 ± 0.063
CCGGAGCAAUAUUACGAGCC,-3.09 ± 0.31,-2.1 ± 0.42
GGCUAGCAAUAUUACGUACA,-1.07 ± 0.12,-0.185 ± 0.11
UGCUAGCAAUAUUACGUAGU,-3.35 ± 0.2,-2.71 ± 0.25
GAAUAGCAAUAUUACGCCGU,-1.6 ± 0.1,-0.466 ± 0.11
CUGUAGCAAUAUUACGGGUU,-3.94 ± 0.23,-3.13 ± 0.31
GCCGAGCAAUAUUACGGUCG,-3.63 ± 0.21,–
GUCAAGCAAUAUUACGGUGU,-2.05 ± 0.071,-0.734 ± 0.083
AUAGAGCAAUAUUACGAGGA,-2.21 ± 0.23,-2.16 ± 0.27
CGCAAGCAAUAUUACGGGUC,-3.87 ± 0.23,-3.77 ± 0.28
GGUUAGCAAUAUUACGUAAG,-0.619 ± 0.14,-0.436 ± 0.23
ACCUAGCAAUAUUACGGCCG,-2.22 ± 0.43,-1 ± 0.34
CUUCAGCAAUAUUACGAACA,-0.812 ± 0.18,-1.3 ± 0.21
CGUGAGCAAUAUUACGGAAG,-1.17 ± 0.1,-1.01 ± 0.13
UUCCAGCAAUAUUACGUCUG,-2.71 ± 0.15,-2.28 ± 0.24
UUCCAGCAAUAUUACGCUGC,-3.79 ± 0.28,-2.09 ± 0.4
GGCGAGCAAUAUUACGAUUA,-2.12 ± 0.22,-1.44 ± 0.17
GGGCAGCAAUAUUACGCUCG,-0.812 ± 0.11,-1.24 ± 0.14
UCAUAGCAAUAUUACGCGUA,-1.44 ± 0.09,-0.884 ± 0.08
UACCAGCAAUAUUACGACUA,-0.413 ± 0.078,0.638 ± 0.098

Sequence,self-splicing fitness (ln) (30 °C),self-splicing fitness (ln) (37 °C)
AGAGAGCAAUAUUACGGCAA,–,-1.48 ± 0.4
CAUGAGCAAUAUUACGUGAU,-2.58 ± 0.14,-2.68 ± 0.2
GCCAAGCAAUAUUACGUGAA,-0.726 ± 0.068,0.0387 ± 0.09
AAAAAGCAAUAUUACGCAGA,-2.35 ± 0.15,-1.86 ± 0.14
UUGGAGCAAUAUUACGGGGU,-4.02 ± 0.4,-2.44 ± 0.33
AAUCAGCAAUAUUACGGCUA,-0.0319 ± 0.079,0.406 ± 0.094
GUGAAGCAAUAUUACGCGUU,-3.59 ± 0.2,-2.02 ± 0.21
CGGCAGCAAUAUUACGCGUC,-4.09 ± 0.25,-2.4 ± 0.18
AAAUAGCAAUAUUACGACCU,-0.0682 ± 0.092,0.265 ± 0.13
UCCUAGCAAUAUUACGCAGC,–,-0.949 ± 0.4
UAUCAGCAAUAUUACGGCGA,-0.382 ± 0.1,1.02 ± 0.13
GCCAAGCAAUAUUACGCAUU,-1.35 ± 0.072,-0.715 ± 0.081
CAUCAGCAAUAUUACGUGUC,-3.93 ± 0.19,-1.08 ± 0.12
CCACAGCAAUAUUACGGCCC,-2.78 ± 0.29,–
UAGUAGCAAUAUUACGCAGG,-2.8 ± 0.22,-1.74 ± 0.23
GUCGAGCAAUAUUACGCGAC,-2.57 ± 0.2,-2.12 ± 0.29
GAACAGCAAUAUUACGACAG,-3.37 ± 0.18,-2.55 ± 0.17
CACCAGCAAUAUUACGUUUA,-3.33 ± 0.16,-2.47 ± 0.13
AGUAAGCAAUAUUACGAUAU,-1.95 ± 0.13,-0.493 ± 0.15
GUCCAGCAAUAUUACGGGAG,-1.15 ± 0.063,-0.322 ± 0.082
UGGCAGCAAUAUUACGAACG,-0.0867 ± 0.16,0.145 ± 0.2
UACCAGCAAUAUUACGCGUG,0.016 ± 0.081,0.0464 ± 0.099
AGGUAGCAAUAUUACGGGAU,-2.755 ± 0.02,-1.49 ± 0.034
AAGGAGCAAUAUUACGGUUC,-1.51 ± 0.17,-2.92 ± 0.35
